pKd: −log10 of the molar value. Each block holds one substance with its values, some of them ahead of it.
How the values were obtained:
[1] = biological target: CXE15 C14S fused to split YFP (Arabidopsis thaliana) (UniProt Q9FG13); experiment: split reporter
[2] = biological target: CXE15 C14S mutant (Arabidopsis thaliana) (UniProt Q9FG13); experiment: MST
[3] = biological target: full-length Arabidopsis thaliana CXE15 (Arabidopsis thaliana) (UniProt Q9FG13); experiment: MST

fold reduction of BiFC fluorescence against wild-type CXE15 [1]: > 2 fold
Substance: CXE15 C14S fused to split YFP (from UniProt Q9FG13 1-329) (enzyme)

pKd [2]: 5.35
Substance: CXE15 C14S mutant (from UniProt Q9FG13 1-329) (enzyme)

pKd [3]: 5.79
Substance: full-length Arabidopsis thaliana CXE15 (from UniProt Q9FG13 1-329) (enzyme)
